The record followed here is paper PMC9972320.

The target of series [1] is MSI1 RRM12 (human, UniProt O43347 20-191). The series can be described thus: ITC; 3 mM MgCl2; ITC: 20 mM HEPES pH 7.5, 150 mM NaCl, 3 mM MgCl2, 25 C; […]. The conditions noted are these: protein: recombinant, tags: GST tag (pGEX-6p-1) removed by PreScission.
In series [2] the target is MSI1 RRM12 K21A/F23A (human, UniProt O43347 20-191, K21A;F23A). Nature of the series: ITC; not impaired; 3 mM MgCl2; ITC: 20 mM HEPES pH 7.5, 150 mM NaCl, 3 mM MgCl2, 25 C; 30 uM RNA in cell, 600 uM protein titrant. The conditions noted are these: protein: recombinant; tags: GST tag removed by PreScission; three-way junction with P4 and pseudoknots. (Isothermal titration calorimetry measures the heat released or taken up as one component is titrated into another.)
Sequence of MSI1 RRM12 K21A/F23A (O43347 20-191 K21A/F23A): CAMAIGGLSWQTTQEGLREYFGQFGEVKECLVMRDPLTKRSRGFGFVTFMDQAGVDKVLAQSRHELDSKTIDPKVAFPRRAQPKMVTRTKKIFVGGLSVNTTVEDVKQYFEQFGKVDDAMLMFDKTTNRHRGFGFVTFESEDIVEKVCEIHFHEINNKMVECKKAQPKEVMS

The target of series [3] is MSI1 RRM12 F63A/F65A (human, UniProt O43347 20-191, F63A;F65A). Described as above. The conditions noted are these: protein: recombinant; tags: GST tag removed by PreScission; three-way junction with P4 and pseudoknots.
Sequence of MSI1 RRM12 F63A/F65A (O43347 20-191 F63A/F65A): as the sequence (O43347 20-191 K21A/F23A) above, with A2K, A4F, F44A, F46A counted along it

Sequence of MSI1 RRM12 (O43347 20-191): as the sequence (O43347 20-191 K21A/F23A) above, with A2K, A4F counted along it

B1: ZIKV xrRNA2 (structured_RNA)
RNA: GAUAGUCAGGCCGAGAACGCCAUGGCACGGAAGAAGCCAUGCUGCCUGUGAGCCCCUCAGAGGACACUGAGU
Turning to B1, the Kd in series [1] (three-way junction with P4 and pseudoknots) worked out at 1900 ± 800 nM. Besides, the binding result in series [2] and in series [3] was “binds” throughout.

B2: ZIKV xrRNA2 P2M/P4M (structured_RNA)
RNA: GAUAGUCAGGCCCGAAAGGCCAUGGCACGGAAGAAGCCAUGCUGCCUGUGAGCCCCUCCCGAAAGGGAGU
Consider B2, for which, in series [1] (folded), the binding result is on record as “no binding”.

B3: DENV4 xrRNA mutant (DxM) (structured_RNA)
RNA: UGUAGUCAGGCCGAGAACGCCACGGUUUGAGCAAACCGUGCUGCCUGUAGCUCCGCCAAUAAUGGGAGGCG
On to B3, for which the Kd in series [1] (folded) was 2540 ± 310 nM.

B4: DENV4 xrRNA (structured_RNA)
RNA: UGAAGUCAGGCCACUUGUGCCACGGUUUGAGCAAACCGUGCUGCCUGUAGCUCCGCCAAUAAUGGGAGGCG
Regarding B4, the binding result in series [1] (folded) is on record as “no binding”.

For orientation: Kd means the free concentration of one partner at which half of the binding sites on the other are occupied at equilibrium, for simple one-to-one binding.
